From PMC3273627
Like-named read-outs stand apart in the source and are kept apart here. One block for each substance: values may come before it.

Tests used:
[1] = biological target: Actin (Oryctolagus cuniculus) (UniProt P68135); settings: cited from earlier work
actin filaments [2] = biological target: actin filaments (UniProt P68135); assay: co-sedimentation
actin filaments [3] = biological target: actin filaments (UniProt P68135); assay: co-sedimentation; remark: listed apart in the source
[4] = biological target: Actin (Oryctolagus cuniculus) (UniProt P68135); settings: cited from earlier work; remark: listed apart in the source

Substance: Dystrophin DysN-R17 (from UniProt P11531)
Kd [1]: 0.76 µM

Kd (actin filaments [2]): 0.152 µM
Kd (actin filaments [3]): 0.11 µM
Substance: full-length dystrophin, P11531 1-3678

Kd (actin filaments [3]): 6.85 µM
Substance: DP260 isoform of dystrophin

Substance: Dystrophin (from UniProt P11531)
Kd [4]: 0.3 µM
